What was measured:
MD-2 = target: T1, MD-2 (Homo sapiens, UniProt Q9Y6Y9); test: Co-immunoprecipitation with Flag-tagged wild-type MD-2 in HEK293 cells; type: binding; conditions: Myc-tagged protein with Flag-tagged MD-2, co-immunoprecipitation
T1 construct: expressed in transfected cells; host or cells: HEK293
T1 sequence (Q9Y6Y9 19-160): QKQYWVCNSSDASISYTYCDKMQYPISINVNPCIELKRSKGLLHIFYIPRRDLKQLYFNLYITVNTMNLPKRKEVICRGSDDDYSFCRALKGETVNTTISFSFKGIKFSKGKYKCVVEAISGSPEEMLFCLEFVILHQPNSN
Description: (A) HEK293 cells were transiently transfected with plasmids encoding for Flag-tagged MD-2 (lanes 1-4) in combination with either a Myc-tagged MD-2 (lanes 1 and 3) or a Myc-tagged MD-2s (lanes 2 and 4) expressing plasmid. Co-immunoprecipitation experiments were then performed using an anti-Flag antibody (lanes 3-4) or an IgG isotype control antibody (lane 1-2). Samples were fractionated by SDS-PAGE and immunoblotting with an anti-Myc antibody was performed. (B) Structural analysis of MD-2. Structural features representing the TLR4 binding sites (red); the ligand contacts (dark blue); the ligand binding pocket (light blue) and the TLR4 secondary contacts (pink) are illustrated. The residues deleted in MD-2s (yellow) are also shown. (C) HEK293 cells were transiently transfected with plasmids encoding for Myc-tagged MD-2 (lanes 3 and 4) or a Myc-tagged MD-2s (lanes 5 and 6) expressing plasmid and treated with LPS-biotin as indicated. Co-immunoprecipitation experiments were then performed using an anti-Myc antibody. […]
HEK 293 cells were seeded into 100 mm dishes (1.5×10^6) 24 h prior to transfection. […] For immunoblotting, primary antibodies were detected using horseradish peroxidase-conjugated secondary antibodies, followed by enhanced chemiluminescence (Amersham Biosciences). […]

[1] = Biotin-LPS binding, immunoprecipitation from culture supernatants; conditions: culture supernatants incubated with biotin-LPS, anti-Myc immunoprecipitation
Description: (A) HEK293 cells were transiently transfected with plasmids encoding for Flag-tagged MD-2 (lanes 1-4) in combination with either a Myc-tagged MD-2 (lanes 1 and 3) or a Myc-tagged MD-2s (lanes 2 and 4) expressing plasmid. Co-immunoprecipitation experiments were then performed using an anti-Flag antibody (lanes 3-4) or an IgG isotype control antibody (lane 1-2). Samples were fractionated by SDS-PAGE and immunoblotting with an anti-Myc antibody was performed. (B) Structural analysis of MD-2. Structural features representing the TLR4 binding sites (red); the ligand contacts (dark blue); the ligand binding pocket (light blue) and the TLR4 secondary contacts (pink) are illustrated. The residues deleted in MD-2s (yellow) are also shown. (C) HEK293 cells were transiently transfected with plasmids encoding for Myc-tagged MD-2 (lanes 3 and 4) or a Myc-tagged MD-2s (lanes 5 and 6) expressing plasmid and treated with LPS-biotin as indicated. Co-immunoprecipitation experiments were then performed using an anti-Myc antibody. Samples were fractionated by SDS-PAGE and immunoblotting with an anti-biotin (upper panel) and anti-Myc antibody (lower panel) were performed.
To address this possibility, HEK293 cells were transiently transfected with plasmids encoding either MD-2 or MD-2s. Culture supernatants were then incubated with biotin-LPS and Myc-tagged proteins were immunoprecipitated.

Molecule | Interaction with wild-type MD-2 (MD-2) | Binding of secreted protein to LPS [1]
MD-2: full-length human wild-type MD-2, co-receptor of TLR4 [reference compound] | can homodimerise | bound readily to LPS
MD-2s: alternatively spliced isoform of human MD-2 lacking exon 2, with D38G substitution; expressed and secreted protein sequences in Table 1 (protein, listed as Homo sapiens) chain 1: MLPFLFFSTLFSSIFTEAQKQYWVCNSSDASISYTYCGRDLKQLYFNLYITVNTMNLPKRKEVICRGSDDDYSFCRALKGETVNTTISFSFKGIKFSKGKYKCVVEAISGSPEEMLFCLEFVILHQPNSN chain 2: EAQKQYWVCNSSDASISYTYCGRDLKQLYFNLYITVNTMNLPKRKEVICRGSDDDYSFCRALKGETVNTTISFSFKGIKFSKGKYKCVVEAISGSPEEMLFCLEFVILHQPNSN | associates with wild-type MD-2 | interaction between secreted MD-2s and LPS was also detected

From patent US9512196B2, “Short-form human MD-2 as a negative regulator of toll-like receptor 4 signaling” (Cedars-Sinai Medical Center, priority 2008, dated 2016)
